In US20130171217A1, “ENZYMATIC PERACID GENERATION FOR USE IN SKIN CARE PRODUCTS” (E I DU PONT DE NEMOURS AND COMPANY, priority 2010, published 2013):
Blank lines part the entries; values can stand above or below the molecule they belong to.

What was measured:
[1] = Retention of perhydrolase on hair detected by hydrolase activity; assay type: binding
Experimental: For hair binding experiments brown hair tresses (International Hair Importers and Products, Glensdale N.Y.) were used. The hair was washed with 2% SLES, rinsed extensively with deionized water and air dried.
Around 20 mg of 1 cm brown hair fragments was added in a 1.8-mL microfuge tube. Hydrolase assay buffer (1.2 mL) as added to the hair followed by the addition of the perhydrolase enzymes to the solution. The enzymes were allowed to bind the hair for 30 min with gentle agitation (24 rpm) on an Adams Nutator (model 1105, Becton Dickinson, Franklin Lakes, N.J.). No enzyme controls, with hair and without hair, were included in the binding experiment to account for non-enzymatic hydrolysis of the pNPA hydrolase reagent. After the binding step, a 1.0-mL aliquot of the binding buffer was transferred to a new tube to quantitate the amount of unbound enzyme. Additional binding buffer was removed and the hair fragments were washed 4 times with 1 mL of 1% TWEEN®-20 in hydrolase buffer, followed by 2 washes with 1 mL each in hydrolase buffer. The hair fragments were then resuspended in 1 mL of hydrolase assay and the hydrolase activity that remained bound to the hair was measured. The C277S (“PAH”) variant of Thermotoga maritima perhydrolase (SEQ ID NO: 293) was used as a control for an un-targeted perhydrolase.

[2] = Single fiber tensile strength and bleaching start after two-step enzymatic application; conditions: two-step with buffer rinse
Experimental: Hair samples were cut into pieces 4-inches in length. The denier number (liner mass density) of each hair fiber was measured by Textechno Vibromat Instrument (Textechno Herbert Stein GmbH & Co. KG; Germany). The hair fibers were tested according to ASTM D 3822-01 (“Tensile Properties of Single Textile Fibers”; ASTM International, West Conshohocken, Pa., 2001), on an Instron testing system (Instron Model 1122 Tester; Instron, Mass.) at about 70° F. (approximately 21° C.) and 65% relative humidity. The treated area of the hair sample was placed in the middle of the gauge and both ends were gripped on the test heads. Both fiber ends were attached on a piece of tape, respectively, for easy handling and gripping on the test heads. The test used 2-inch (5.1 cm) gauge length, […], and 1.2 inch/min (3 cm/min) pulling rate. The force-strain curve of the fiber was recorded during the test. The tenacity at maximum (gf/den) was calculated by dividing maximum force (gf) by denier number (den). Note that (gf/den)/11.33=Newtons/tex (N/tex).
In a two-step application, the hair strands are first treated with perhydrolase solutions to allow the enzyme to bind hair. The hair strands are then dried or rinsed with buffer and dried. The rinse step is intended to remove excess unbound enzyme from the hair. The hair strands are soaked in triacetin and H2O2 solutions. The application is repeated for multiple times.
One experiment was carried out with C277S-HC263 and untargeted T. maritima variant C277S using the following protocol: • 1. Enzyme solutions comprising 0.5 mg/mL enzyme in 50 mM phosphate buffer (pH 8) were made with or without 10 wt % urea. • 2. Seven (7) hair strands were soaked in 0.2 mL of an enzyme solution for 10 min and then dried under N2 without prior rinsing. • 3. The hair strands were then soaked in 0.2 mL of a pH 8 solution containing 100-mM triacetin and 250-mM H2O2 for 15 min, dried, then rinsed with DI water and then dried again. • 4. Steps 2-3 were repeated up to 15 times.
Another experiment was carried out with C277S-HC263 (SEQ ID NO: 288), CPAH-HC263 (SEQ ID NO: 294), CPAH-HC1010 (SEQ ID NO: 295) and untargeted C277S using the following protocol: • 1. Enzyme solutions comprising 1.0 mg/mL enzyme in 50 mM phosphate buffer (pH 6) were prepared. For solutions containing two enzymes, the concentration of each enzyme was approximately 0.5 mg/mL. • 2. Seven (7) hair strands were soaked in 0.2 mL of an enzyme solution for 10 min, rinsed with 50 mM phosphate buffer (pH 6), and then dried under N2. • 3. The dried hair strands were then soaked into 0.2 mL of 50 mM phosphate buffer solution (pH 8) comprising 100 mM triacetin and 250 mM H2O2 for 15 min, dried, then rinsed with DI water and then dried again. • 4.

[3] = Perhydrolase activity remaining bound to hair, ABTS assay; assay type: binding, human; conditions: 50 μg/mL
Experimental: Ten mg of human hair was submerged in 2 mL of a binding solution containing 50 μg/mL of the Thermotoga maritima perhydrolase targeted to hair via the hair binding peptide HC263 (C277S-HC263; SEQ ID NO: 288; also referred to herein as “HC1121”) in 50 mM pH 7.2 potassium phosphate buffer containing 5% of the test surfactant. The test surfactants were two nonionic surfactants: TWEEN®-20 (Sigma, St Louis, Mo.), and TRITON®-X 100 (Aldrich, St Louis, Mo.), and two ionic surfactants: CHEMBETAINE™ CAD (Cocamidopropyl betaine; Lubrizol, Wickliffe, Ohio) and RHODAPEX® ES-2K (sodium laurel ether sulfate; Rhodia Novecare, Cranbury, N.J.).
Hair was incubated in the binding solution at room temperature (˜22° C.) with gentle agitation for 30 minutes, at which time the solution was removed by aspiration and the hair rinsed with 1% TWEEN®-20 in 50 mM pH 7.2 potassium phosphate buffer. The hair was removed from the tube, blotted dry with paper towel, and transferred to a new set of tubes. The hair was rinsed once with 1% TWEEN®-20 in 50 mM pH 7.2 potassium phosphate buffer and then rinsed three times with 50 mM pH 7.2 potassium phosphate buffer. Perhydrolase activity remaining bound to the hair was determined by the ABTS assay.
The ABTS assay was performed as follows: hair samples treated as described above were transferred to new 2-mL microcentrifuge tubes (Eppendorf Protein LoBind; Eppendorf North America, Hauppauge, N.Y.) To each tube was added 480 μL of PAH buffer (50 mM potassium phosphate, pH 7.2), 14 μL of 39% hydrogen peroxide (Sigma 3410), and 6 μL triacetin (Sigma-Aldrich W200700). The perhydrolase reaction was allowed to proceed for 10 minutes at room temperature (˜22-25° C.). The reaction was stopped by diluting aliquots 10×, 100× and 1000× with 10 mM phosphoric acid. For detection 50 μL of 1 M acetic acid, 50 μL of 40 mg/mL potassium iodide, and 50 μL of 4 mM ABTS (2,2′-azino-bis(3-ethylbenzthiazoline-6-sulphonic acid; Sigma, St Louis, Mo.) were added to 50 μL of the above dilutions. Color was allowed to develop for 10 minutes and read in a spectrophotometer at 405 nm. Values from no-enzyme controls were subtracted to yield values attributable only to enzyme activity. A standard curve of OD 405 nm vs PAA concentration in ppm yielded a conversion factor of 8.75, such that an OD 405 nm of 1.0 corresponded to approximately 8.75 ppm PAA. This value was then multiplied by the appropriate dilution to arrive at the PAA concentration in the perhydrolase reaction.
The Thermotoga maritima perhydrolase targeted to hair via the hair binding peptide HC263 (C277S-HC263; SEQ ID NO: 288) was diluted to 50 μg/mL in a solution of 5% PEG-80 sorbitan laurate in 100 mM citrate-phosphate buffer adjusted to pH 4.9, pH 5.5, pH 6.0, or pH 7.0. Ten mg of human hair was added to 2 mL of the above formulations and incubated with gentle agitation for 5 minutes at room temperature to allow enzyme binding to hair. A no-enzyme control sample was included with each pH. After binding, the binding solution was removed by aspiration and the hair was washed with 2 mL of 1% TWEEN®-20 in 50 mM pH 7.2 potassium phosphate buffer. The hair was removed from the tube, blotted dry with paper towel, and transferred to a new set of tubes. The hair was rinsed once with 1% TWEEN®-20 in 50 mM pH 7.2 potassium phosphate buffer and then rinsed three time with 50 mM pH 7.2 potassium phosphate buffer. Perhydrolase activity remaining bound to the hair was determined by the ABTS assay. The results are given as ppm PAA produced at 10 minutes (after subtraction of the no-enzyme control values)
The Thermotoga maritima perhydrolase targeted to hair via the hair binding peptide HC263 (C277S-HC263; SEQ ID NO: 288) was diluted to 50 μg/mL in a solution of 5% PEG-80 sorbitan laurate in 100 mM citrate-phosphate buffer adjusted to pH 6.0. […]

[4] = pH 6.0, binding 1 min, at 10 minutes

Activity in the first TWEEN®-20 wash ([1]; hydrolase activity, 1% TWEEN®-20): 20%
Activity retained on hair after 4 TWEEN® 20 washes ([1]; hydrolase activity, 4 washes 1% TWEEN®-20 and 2 buffer washes): 41%
Activity unbound ([1]; hydrolase activity, ~20 mg hair, binding 30 min): 20%
B1: C277S-HC1010: C277S variant of Thermotoga maritima perhydrolase fused via a flexible linker to hair-binding domain HC1010 (protein)
chain: MAFFDLPLEELKKYRPERYEEKDFDEFWEETLAESEKFPLDPVFERMESHLKTVEAYDVTFSGYRGQRIKGWLLVPKLEEEKLPCVVQYIGYNGGRGFPHDWLFWPSMGYICFVMDTRGQGSGWLKGDTPDYPEGPVDPQYPGFMTRGILDPRTYYYRRVFTDAVRAVEAAASFPQVDQERIVIAGGSQGGGIALAVSALSKKAKALLCDVPFLCHFRRAVQLVDTHPYAEITNFLKTHRDKEEIVFRTLSYFDGVNFAARAKIPALFSVGLMDNISPPSTVFAAYNYYAGPKEIRIYPYNNHEGGGSFQAVEQVKFLKKLFEKGGPGSGGAGSPGSAGGPGSAQSQLPDKHSGLHERAPQRYGSGTAEIQSSKNPNPHPQRSWTNGSGHNHMQERYTDPQHSPSVNGLGSGHDHKNQKETHQRHAASSHHHHHH
100% activity (hydrolase activity added to the tube) ([1]; tube containing ~20 mg of hair, not subjected to washes): 125 µmol/min

B2: CPAH-HC263: fusion peptide C277S-HC263 further comprising a D128G substitution (protein)
chain: MAFFDLPLEELKKYRPERYEEKDFDEFWEETLAESEKFPLDPVFERMESHLKTVEAYDVTFSGYRGQRIKGWLLVPKLEEEKLPCVVQYIGYNGGRGFPHDWLFWPSMGYICFVMDTRGQGSGWLKGGTPDYPEGPVDPQYPGFMTRGILDPRTYYYRRVFTDAVRAVEAAASFPQVDQERIVIAGGSQGGGIALAVSALSKKAKALLCDVPFLCHFRRAVQLVDTHPYAEITNFLKTHRDKEEIVFRTLSYFDGVNFAARAKIPALFSVGLMDNISPPSTVFAAYNYYAGPKEIRIYPYNNHEGGGSFQAVEQVKFLKKLFEKGGPGSGGAGSPGSAGGPGSPSAQSQLPDKHSGLHERAPQRYGPEPEPEPEPIPEPPKEAPVVIEKPKPKPKPKPKPPAHDHKNQKETHQRHAAGSGGGGSPHHHHHH
Bleaching Start ([2]; 1.0 mg/mL enzyme pH 6): 9th
Tenacity @ max ([2]; 1.0 mg/mL enzyme pH 6, 100 mM triacetin, 250 mM H2O2, up to 13 repeats): 0.6 gf/den

B3: SEQ ID NO: 314: untargeted S54V variant of the aryl esterase from Mycobacterium smegmatis (protein, listed as Mycobacterium smegmatis)
chain: MAKRILCFGDSLTWGWVPVEDGAPTERFAPDVRWTGVLAQQLGADFEVIEEGLVARTTNIDDPTDPRLNGASYLPSCLATHLPLDLVIIMLGTNDTKAYFRRTPLDIALGMSVLVTQVLTSAGGVGTTYPAPKVLVVSPPPLAPMPHPWFQLIFEGGEQKTTELARVYSALASFMKVPFFDAGSVISTDGVDGIHFTEANNRDLGVALAEQVRSLL
OD 405nm [3, 4]: 0.003
Peracetic acid [3, 4]: 2.60 ppm

B4: SEQ ID NO: 341: C277S variant of Thermotoga maritima perhydrolase fused to hair binding domain HC263KtoR via a flexible linker (protein)
chain: MAFFDLPLEELKKYRPERYEEKDFDEFWEETLAESEKFPLDPVFERMESHLKTVEAYDVTFSGYRGQRIKGWLLVPKLEEEKLPCVVQYIGYNGGRGFPHDWLFWPSMGYICFVMDTRGQGSGWLKGDTPDYPEGPVDPQYPGFMTRGILDPRTYYYRRVFTDAVRAVEAAASFPQVDQERIVIAGGSQGGGIALAVSALSKKAKALLCDVPFLCHFRRAVQLVDTHPYAEITNFLKTHRDKEEIVFRTLSYFDGVNFAARAKIPALFSVGLMDNISPPSTVFAAYNYYAGPKEIRIYPYNNHEGGGSFQAVEQVKFLKKLFEKGGPGSGGAGSPGSAGGPGSPSAQSQLPDRHSGLHERAPQRYGPEPEPEPEPIPEPPREAPVVIERPRPRPRPRPRPPAHDHRNQRETHQRHAAGSGGGGSPHHHHHH
ppm PAA ([3]; 5% PEG-80 sorbitan laurate pH 6.0, binding 10 min, PAA at 10 minutes): 958 ppm
